The values below are quoted from earlier work in PMC5757840.

The series concerns the target SNARE complex (Rattus norvegicus) (UniProt P32851).
UniProt P32851, sequence (P32851 whole entry, chain 1 of 3): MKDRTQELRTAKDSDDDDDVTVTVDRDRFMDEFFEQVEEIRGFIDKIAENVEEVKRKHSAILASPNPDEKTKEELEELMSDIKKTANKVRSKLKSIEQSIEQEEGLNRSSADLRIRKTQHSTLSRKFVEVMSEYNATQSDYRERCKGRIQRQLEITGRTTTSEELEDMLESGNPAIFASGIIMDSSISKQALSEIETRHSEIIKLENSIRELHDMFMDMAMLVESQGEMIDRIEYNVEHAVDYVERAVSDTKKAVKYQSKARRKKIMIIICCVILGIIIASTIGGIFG
UniProt P32851, sequence (B2RAU4 whole entry, chain 2 of 3, further chain): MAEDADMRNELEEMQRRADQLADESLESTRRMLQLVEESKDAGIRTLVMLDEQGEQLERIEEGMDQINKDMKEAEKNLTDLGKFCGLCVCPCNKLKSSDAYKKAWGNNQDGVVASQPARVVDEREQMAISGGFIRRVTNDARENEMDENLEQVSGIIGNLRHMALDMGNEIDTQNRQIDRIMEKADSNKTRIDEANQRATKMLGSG
UniProt P32851, sequence (P63044 2-116, chain 3 of 3, further chain): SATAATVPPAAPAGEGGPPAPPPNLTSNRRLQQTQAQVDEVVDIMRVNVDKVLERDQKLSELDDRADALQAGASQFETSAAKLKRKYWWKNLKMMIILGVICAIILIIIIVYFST

The Kd is the equilibrium constant for the complex coming apart. In the case of Syt1 (from UniProt P21707), the dissociation constant Kd was 900 nM.
